No end group written: not given here. PEG = not defined here
What was measured:
[1] = HPLC analysis of plasma for circulating metabolites after large intravenous doses; format: in vivo; details: plasma of animals after large intravenous doses
NIH:Swiss mice = experiment: Food intake (appetite suppression) in normal mice; format: in vivo; details: inhibition of food intake over 30 min, intraperitoneal injection, food deprived NIH:Swiss mice
Procedure: All mice (NIH:Swiss mice) were housed in a stable environment of 22 (±2)° C., 60 (±10) % humidity and a 12:12 light:dark cycle; with lights on at 0600. […] All experiments were conducted between the hours of 0700 and 0900.

[2] = biological target: T1, GLP-1 receptor (RINm5f membranes) (Rattus norvegicus, UniProt P32301); experiment: Cyclase activation study (GLP-1 Cyclase), cAMP SPA immunoassay on RINm5f membranes; format: biochemical; details: read-out: GLP-1 Cyclase EC50, 20 minutes at 37° C., supernatant cAMP
T1 construct: host or cells: RINm5f cells (membranes/homogenate)
T1 sequence (P32301 22-463): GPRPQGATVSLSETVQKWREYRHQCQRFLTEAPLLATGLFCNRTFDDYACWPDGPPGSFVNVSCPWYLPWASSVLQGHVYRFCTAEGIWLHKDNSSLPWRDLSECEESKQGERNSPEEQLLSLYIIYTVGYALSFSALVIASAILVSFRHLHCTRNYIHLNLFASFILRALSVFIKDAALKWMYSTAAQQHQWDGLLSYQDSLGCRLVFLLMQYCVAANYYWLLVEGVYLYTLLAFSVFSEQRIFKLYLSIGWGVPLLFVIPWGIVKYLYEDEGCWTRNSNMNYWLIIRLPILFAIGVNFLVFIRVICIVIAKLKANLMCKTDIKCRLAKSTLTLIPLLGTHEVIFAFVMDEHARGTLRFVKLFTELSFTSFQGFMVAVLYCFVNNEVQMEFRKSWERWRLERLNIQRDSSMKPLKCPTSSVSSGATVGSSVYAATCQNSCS
Procedure: All other peptides were prepared using synthesis methods such as those described herein. All chemicals were of the highest commercial grade. The cAMP SPA immunoassay was purchased from Amersham. The radioligands were purchased from New England Nuclear (Boston, Mass.). RINm5f cells (American Type Tissue Collection, Rockville, Md.) were grown in DME/F12 medium containing 10% fetal bovine serum and 2 mM L-glutamine. […] Cells were grown to confluence then harvested and homogenized using on a Polytron homogenizer. Cell homogenates were stored frozen at −70° C. until used.
Membranes and peptides was combined in […] of assay buffer in 96 well filter-bottom plates (Millipore Corp., Bedford, Mass.). After 20 minutes incubation at 37° C., the assay was terminated by transfer of supernatant by filtration into a fresh 96 well plate using a Millipore vacuum manifold. Supernatant cAMP contents were quantitated by SPA immunoassay. Peptide samples were run in the assay as triplicate points at 7 dilutions over a concentration range of 10^−6M to 10^−12M to generate response curves. The biological activity of a particular sample was expressed as an EC50 value calculated as described above.

Substance | plasma circulating metabolites (HPLC) [1] | Appetite Suppression ED50 (NIH:Swiss mice) | EC50 [2] [nM]
GLP-1 [7-36]NH2 | subpeptide degradants |  | 
amylin: peptide hormone studied for comparison of plasma degradation (KCNTATCATQRLANFLVHSSNNFGAILSSTNVGSNTY; Islet amyloid polypeptide; UniProt P10997 34-70, looked up) | subpeptide degradants |  | 
HGEGTFTSDLSRQMEEEAVRLFIEWLRNGK(PEG)PSSGAPPPS-NH2 [224] (not fully specified; PEG linker; C-terminal amide) [compound 224] |  | weak | 3.22
HGEGTFTSDLSRQMEEAVRLFIEWLRNGGPSSGAPPPK(PEG)-NH2 (reading uncertain; also: printed as HGEGTFTSDLSRQMEEAVRLFIEWLRNGGPSSGAPPPK(PEG)-NH2) [compound 229] |  | 0.0145 mg/kg | 60.4
HGEGTFTSDLSRQMEEEAVRLFIEWLRNGK(PEG)PSSGAPPPS-NH2 [230] (not fully specified; PEG linker; C-terminal amide) [compound 230] |  |  | 157

Reference: patent US8951962B2, “Modified exendins and exendin agonists” (priority 1999, dated 2015)
